Experimental data reported in PMC11903679.

Experiments:
[1] = molecular target: HLA-B*08:01/hβ2m (human)
[2] = molecular target: HLA-A*02:01/hβ2m (human)
[3] = molecular target: HLA-B*08:01/hβ2m (human); assay: in vitro refolding + SEC
[4] = molecular target: HLA-A*02:01/hβ2m (human); assay: in vitro refolding + SEC
[5] = molecular target: HLA-E*01:03/hβ2m (human)
[6] = molecular target: HLA-E*01:03/hβ2m (human); remark: listed apart in the source
[7] = molecular target: HLA-E*01:03/hβ2m (human); assay: in vitro refolding + SEC

| Substance | nanoDSF melting temperature (Tm) of the refolded peptide/HLA/hβ2m complex [1] | nanoDSF melting temperature (Tm) of the refolded peptide/HLA/hβ2m complex [2] | apparent refolding yield (%) [3] | apparent refolding yield (%) [4] | nanoDSF melting temperature (Tm) of the refolded peptide/HLA/hβ2m complex [5] | nanoDSF melting temperature of a minor population of the refolded complex [6] | apparent refolding yield (%) [7] |
| --- | --- | --- | --- | --- | --- | --- | --- |
| MSP1 880–889 (…) (peptide) | 51.6 °C | 53.6 °C | 63.3% | – | – | – | – |
| LSA3 78–87 (…) (peptide) | 56.3 °C | 52.5 °C | 14.7% | 13.5% | – | – | – |
| MSP1 511–520 (…) (peptide) | – | 51.6 °C | 44.4% | 19% | – | – | – |
| MSP1 643–652 (…) (peptide) | 52.9 °C | – | 32.6% | – | 38.4 °C | 63 °C | 8% |
| MSP1 823–832 (…) (peptide) | 52.6 °C | 63.2 °C | 12.5% | – | – | – | – |
| SSFP 93–102 (…) (peptide) | 56.3 °C | 52.5 °C | 51.1% | 27.1% | – | – | – |
| LSA3 1229–1238 (…) (peptide) | 60.5 °C | 58.4 °C | 47.6% | 24.6% | 61 °C | – | 38.1% |
